Patent publication US20140271478A1 (University of California, published 2014)
Where a chain is given by its changes, count along the chain named.

Columns and labels:
Assay in all cases: cell staining of β8 amino acid swap constructs (175-180)
[1] = target: T1, human integrin β8 swap construct RKMALY (SEQ ID NO:129) (human, UniProt P26012 43-769)
T1 sequence: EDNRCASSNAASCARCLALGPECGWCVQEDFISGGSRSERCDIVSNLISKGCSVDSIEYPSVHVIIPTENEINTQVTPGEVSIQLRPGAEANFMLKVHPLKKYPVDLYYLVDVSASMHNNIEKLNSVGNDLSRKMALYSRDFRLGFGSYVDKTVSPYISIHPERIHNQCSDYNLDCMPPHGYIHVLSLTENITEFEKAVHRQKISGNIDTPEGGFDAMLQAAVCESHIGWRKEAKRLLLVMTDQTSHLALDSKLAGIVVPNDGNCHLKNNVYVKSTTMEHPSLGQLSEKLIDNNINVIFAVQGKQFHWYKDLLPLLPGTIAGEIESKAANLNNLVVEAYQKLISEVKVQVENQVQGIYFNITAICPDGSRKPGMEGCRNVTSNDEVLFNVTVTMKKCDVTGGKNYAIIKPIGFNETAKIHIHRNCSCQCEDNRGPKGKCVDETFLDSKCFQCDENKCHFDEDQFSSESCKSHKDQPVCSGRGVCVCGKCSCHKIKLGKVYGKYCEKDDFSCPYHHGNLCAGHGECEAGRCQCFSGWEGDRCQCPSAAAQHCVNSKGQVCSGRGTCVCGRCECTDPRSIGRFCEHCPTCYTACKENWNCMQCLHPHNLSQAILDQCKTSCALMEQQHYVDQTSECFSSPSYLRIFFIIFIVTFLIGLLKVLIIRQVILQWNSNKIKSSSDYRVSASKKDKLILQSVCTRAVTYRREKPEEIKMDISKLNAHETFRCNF

[2] = target: T2, human integrin αβ8 (αvβ8) expressed on cells (human, UniProt P06756 31-1048)
T2 construct: whole, on cells; β8 transfected into or endogenous on cells, unfixed or formalin fixed; also called human integrin β8; ITGB8
T2 sequence (P06756 31-1048): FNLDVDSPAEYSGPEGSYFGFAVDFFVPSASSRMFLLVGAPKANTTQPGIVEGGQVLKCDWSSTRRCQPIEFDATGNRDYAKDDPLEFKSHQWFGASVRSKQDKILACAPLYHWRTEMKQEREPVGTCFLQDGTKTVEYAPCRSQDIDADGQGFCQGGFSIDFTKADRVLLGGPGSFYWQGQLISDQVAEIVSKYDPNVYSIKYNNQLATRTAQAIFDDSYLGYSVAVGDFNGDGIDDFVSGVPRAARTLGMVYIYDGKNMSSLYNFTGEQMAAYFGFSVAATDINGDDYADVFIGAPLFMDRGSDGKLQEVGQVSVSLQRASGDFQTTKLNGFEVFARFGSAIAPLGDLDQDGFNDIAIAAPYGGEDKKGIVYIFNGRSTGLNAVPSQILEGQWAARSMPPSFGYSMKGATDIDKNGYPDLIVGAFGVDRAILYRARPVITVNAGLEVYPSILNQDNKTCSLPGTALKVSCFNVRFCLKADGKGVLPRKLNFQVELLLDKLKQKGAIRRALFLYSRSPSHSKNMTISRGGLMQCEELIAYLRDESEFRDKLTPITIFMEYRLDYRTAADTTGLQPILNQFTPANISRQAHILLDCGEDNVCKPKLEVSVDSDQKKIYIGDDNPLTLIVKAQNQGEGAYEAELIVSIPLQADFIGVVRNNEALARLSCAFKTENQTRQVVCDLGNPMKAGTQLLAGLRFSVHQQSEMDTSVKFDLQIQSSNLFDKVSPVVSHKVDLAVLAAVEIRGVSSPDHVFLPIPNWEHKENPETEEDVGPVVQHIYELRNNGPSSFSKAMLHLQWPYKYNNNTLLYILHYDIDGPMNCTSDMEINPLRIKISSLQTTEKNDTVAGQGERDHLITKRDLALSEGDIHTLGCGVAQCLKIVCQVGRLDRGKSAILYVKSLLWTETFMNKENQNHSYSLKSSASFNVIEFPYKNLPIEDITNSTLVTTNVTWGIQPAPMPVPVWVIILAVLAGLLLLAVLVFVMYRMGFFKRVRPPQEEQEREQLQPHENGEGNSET

[3] = target: T3, human integrin β8 swap construct KKMALF (SEQ ID NO:132) (human, UniProt P26012 43-769)
T3 sequence: T1 sequence with R133K, Y138F

[4] = target: T4, human integrin β8 swap construct KKMAFF (SEQ ID NO:133) (human, UniProt P26012 43-769)
T4 sequence: T1 sequence with R133K, L137F, Y138F

B1: 14E5 antibody (antibody, V domains shown)
VH: EVQLQQSGAELMKPGASVKISCKATGYTFSTYWIEWIKQRPGHGLEWIGHILPGSVITNYNEKFKGKAAITADTSSNTSYMQLSSLTSEDSAVYYCARWGWDSYWGQGTLVTVSS
VL: DIEMTQSPSSLSASLGDRVTISCSTSQDISSSLNWYQQKPDGTVTLLIYYTSNLHSGVPSRFSGSGSGTDYSLTISNLEPEDIATYYCQQYSKLPYTFGGGTKLEIKR
notes: Mouse hybridoma antibody; also called hybridoma clone 14E5
- % positive [1]: 1%
- % positive [2]: 112%
- % positive [3]: 1%
- % positive [4]: 9%

B2: 11E8 antibody (antibody, V domains shown)
VH: EVQLQQSGPELMKTGASVKISCKATGYTFSSYWIEWVKQRPGHGLEWIGDILPGSGTTNYNEKFKGRATVTADRSSNTAYMQLSSLTYGDSAVYYCATWGWDTYWDQGTSVTVSS
VL: B1 VL with E3V, T25A, D28G, S31N, S32Y, T45K, N53S, K93N
notes: Mouse hybridoma antibody
- % positive [1]: 4%
- % positive [2]: 97%
- % positive [3]: 3%
- % positive [4]: 115%

B3: 37E1B5 antibody (antibody, V domains shown)
VH: EVQLVESGGGLVQPGGSLNLSCAVSGFVFSRYWMSWVRQAPGKGLEWIGEINPDSSTINYTSSLKDKFIISRDNAKNTLYLQMNKVRSEDTALYYCACLITTEDYWGQGTSVTVSS
VL: QIVLTQSPSSMYASLGERVTIPCKASQDINSYLSWFQQKPGKSPKTLIYYANRLVDGVPSRFSGSGSGQDYSLTISSLEYEDMGIYYCLQYDEFPYTFGGGTKLEIK
- % positive [1]: 14%
- % positive [2]: 108%
- % positive [3]: 31%
- % positive [4]: 116%
